Experimental data published in article PMC11446282.

B1: PDE8B_HUMAN (protein, UniProt O95263 1-885, looked up)
High affinity cAMP-specific …: MGCAPSIHVSQSGVIYCRDSDESSSPRQTTSVSQGPAAPLPGLFVQTDAADAIPPSRASGPPSVARVRRARTELGSGSSAGSAAPAATTSRGRRRHCCSSAEAETQTCYTSVKQVSSAEVRIGPMRLTQDPIQVLLIFAKEDSQSDGFWWACDRAGYRCNIARTPESALECFLDKHHEIIVIDHRQTQNFDAEAVCRSIRATNPSEHTVILAVVSRVSDDHEEASVLPLLHAGFNRRFMENSSIIACYNELIQIEHGEVRSQFKLRACNSVFTALDHCHEAIEITSDDHVIQYVNPAFERMMGYHKGELLGKELADLPKSDKNRADLLDTINTCIKKGKEWQGVYYARRKSGDSIQQHVKITPVIGQGGKIRHFVSLKKLCCTTDNNKQIHKIHRDSGDNSQTEPHSFRYKNRRKESIDVKSISSRGSDAPSLQNRRYPSMARIHSMTIEAPITKVINIINAAQENSPVTVAEALDRVLEILRTTELYSPQLGTKDEDPHTSDLVGGLMTDGLRRLSGNEYVFTKNVHQSHSHLAMPITINDVPPCISQLLDNEESWDFNIFELEAITHKRPLVYLGLKVFSRFGVCEFLNCSETTLRAWFQVIEANYHSSNAYHNSTHAADVLHATAFFLGKERVKGSLDQLDEVAALIAATVHDVDHPGRTNSFLCNAGSELAVLYNDTAVLESHHTALAFQLTVKDTKCNIFKNIDRNHYRTLRQAIIDMVLATEMTKHFEHVNKFVNSINKPMAAEIEGSDCECNPAGKNFPENQILIKRMMIKCADVANPCRPLDLCIEWAGRISEEYFAQTDEEKRQGLPVVMPVFDRNTCSIPKSQISFIDYFITDMFDAWDAFAHLPALMQHLADNYKHWKTLDDLKCKSLRLPSDS
B2: OFD1_HUMAN (protein, UniProt O75665 1-1012, looked up)
Centriole and centriolar …: MMAQSNMFTVADVLSQDELRKKLYQTFKDRGILDTLKTQLRNQLIHELMHPVLSGELQPRSISVEGSSLLIGASNSLVADHLQRCGYEYSLSVFFPESGLAKEKVFTMQDLLQLIKINPTSSLYKSLVSGSDKENQKGFLMHFLKELAEYHQAKESCNMETQTSSTFNRDSLAEKLQLIDDQFADAYPQRIKFESLEIKLNEYKREIEEQLRAEMCQKLKFFKDTEIAKIKMEAKKKYEKELTMFQNDFEKACQAKSEALVLREKSTLERIHKHQEIETKEIYAQRQLLLKDMDLLRGREAELKQRVEAFELNQKLQEEKHKSITEALRRQEQNIKSFEETYDRKLKNELLKYQLELKDDYIIRTNRLIEDERKNKEKAVHLQEELIAINSKKEELNQSVNRVKELELELESVKAQSLAITKQNHMLNEKVKEMSDYSLLKEEKLELLAQNKLLKQQLEESRNENLRLLNRLAQPAPELAVFQKELRKAEKAIVVEHEEFESCRQALHKQLQDEIEHSAQLKAQILGYKASVKSLTTQVADLKLQLKQTQTALENEVYCNPKQSVIDRSVNGLINGNVVPCNGEISGDFLNNPFKQENVLARMVASRITNYPTAWVEGSSPDSDLEFVANTKARVKELQQEAERLEKAFRSYHRRVIKNSAKSPLAAKSPPSLHLLEAFKNITSSSPERHIFGEDRVVSEQPQVGTLEERNDVVEALTGSAASRLRGGTSSRRLSSTPLPKAKRSLESEMYLEGLGRSHIASPSPCPDRMPLPSPTESRHSLSIPPVSSPPEQKVGLYRRQTELQDKSEFSDVDKLAFKDNEEFESSFESAGNMPRQLEMGGLSPAGDMSHVDAAAAAVPLSYQHPSVDQKQIEEQKEEEKIREQQVKERRQREERRQSNLQEVLERERRELEKLYQERKMIEESLKIKIKKELEMENELEMSNQEIKDKSAHSENPLEKYMKIIQQEQDQESADKSSKKMVQEGSLVDTLQSSDKVESLTGFSHEELDDSW
B3: BAG2_HUMAN (protein, UniProt O95816 2-211, looked up)
BAG family molecular …: AQAKINAKANEGRFCRSSSMADRSSRLLESLDQLELRVEALREAATAVEQEKEILLEMIHSIQNSQDMRQISDGEREELNLTANRLMGRTLTVEVSVETIRNPQQQESLKHATRIIDEVVNKFLDDLGNAKSHLMSLYSACSSEVPHGPVDQKFQSIVIGCALEDQKKIKRRLETLLRNIENSDKAIKLLEHSKGAGSKTLQQNAESRFN

Tested on: B55α interactors
Experiment: MS analysis of B55α WT, V228A, I284A, S287A and D340A immunopurifications
Type: binding, human
Details: log2 ratio of interactor abundance, 4 replicates each, normalised to bait B55α; for log2_ratio_D340_WT: B55α D340A vs WT immunopurification; for log2_ratio I284_WT: B55α I284A vs WT immunopurification; for log2_ratio S287_WT: B55α S287A vs WT immunopurification; for log2_ratio V228_WT: B55α V228A vs WT immunopurification
Description: Standard cloning techniques were used throughout. Point mutations were introduced by whole plasmid polymerase chain reaction (PCR). All constructs were fully sequenced. Synthetic DNA was purchased from GeneArt, Life Technologies and cloned into pcDNA5/FRT/TO (Invitrogen) expression vector containing YFP, resulting in the indicated YFP fusion proteins. These constructs were transiently transfected into HeLa cells 24 hours before harvesting cells. Cells were lysed in lysis buffer [50 mM tris-HCl (pH 7.5), 50 mM NaCl, 1 mM EDTA, 1 mM […], and 0.1% NP-40]. Complexes were immunoprecipitated at 4°C in lysis buffer with green fluorescent protein (GFP)–Trap (ChromoTek) and washed in lysis buffer. Precipitated protein complexes were washed three times in lysis buffer, eluted in 2× SDS sample buffer, and subjected to Western blotting or MS as indicated.
Pull-downs were analyzed on a Q-Exactive Plus quadrupole or Fusion Orbitrap Lumos mass spectrometer (Thermo Fisher Scientific) equipped with Easy-nLC 1000 or […] (Thermo Fisher Scientific) and nanospray source (Thermo Fisher Scientific).
Static modifications included carbamidomethylcysteine, and variable modifications included oxidized methionine and STY phosphorylation. Searches were filtered using orthogonal measures including mass measurement accuracy (±3 parts per million), Xcorr for charges from +2 to +4, and dCn targeting a <1% false discovery rate at the peptide level. Quantification of LC-MS/MS spectra was performed using MassChroQ ([57]) and the iBAQ method ([58]). All data were analyzed using R 4.3.0. Missing values were imputed from a normal distribution. […] In each dataset, the abundance of the protein of interest was normalized to be equal across all samples. Statistical analyses were done using a two-tailed Student’s t test.

Row | Molecule | log2_ratio_D340_WT | log2_ratio I284_WT | log2_ratio S287_WT | log2_ratio V228_WT
1 | B1 | 3.81 | 0.83 | 4.46 | 5.00
2 | B2 | 2.04 | 1.52 | 0.73 | -2.22
3 | B3 | -0.69 | -0.54 | 0.19 | -0.43
